Legend:
Conditions in all cases: modification not given
[1] = biological target: T1, MDMX (synMDMX) 24-108 (Homo sapiens), O15151; experiment: SPR
T1 chain: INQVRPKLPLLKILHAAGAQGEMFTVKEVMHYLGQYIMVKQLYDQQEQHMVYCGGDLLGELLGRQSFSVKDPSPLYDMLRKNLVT

[2] = biological target: MDM2 (synMDM2) 25-109 (Homo sapiens), Q00987; experiment: SPR
[3] = biological target: MDM2 (synMDM2) 25-109 (Homo sapiens), Q00987; experiment: SPR; remark: listed apart in the source
[4] = biological target: MDM2 (synMDM2) 25-109 (Homo sapiens), Q00987; experiment: SPR direct

Chain of MDM2 (synMDM2) 25-109 (Homo sapiens), Q00987 (Q00987 25-109): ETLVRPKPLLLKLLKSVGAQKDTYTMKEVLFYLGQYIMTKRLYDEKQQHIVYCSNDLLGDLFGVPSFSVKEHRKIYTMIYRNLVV

CYSFDCLWKCLAMGFSSGKCINSKCKC [stoppin-1]
Kd [1]: 994 nM | Kd [2]: 790 nM | Kd [3]: 320 nM

CYSFDCLWKCLAMGFRRGKCRRRKCKC [stoppin-2]
Kd [4]: 493 nM
